# Experiments:
# human factor H (human) [1] = molecular target: human factor H (human) (UniProt P08603); test: SPR; BIAcore X100 Plus; factor H amine-coupled to a CM5 chip (712 RU); recombinant EF-Tu 0-14 uM as analyte in HBS-EP (10 mM HEPES, 150 mM NaCl, 3 mM EDTA, 0.05% P20), 30 uL/min, 180 s, 20°C
# human factor H (human) [2] = molecular target: human factor H (human) (UniProt P08603)
# [3] = molecular target: elongation factor Tu (EF-Tu) of M. hyopneumoniae strain 168, endogenous (M. hyopneumoniae (endogenous in strain 168))
# elongation factor Tu (EF-Tu) of M. hyopneumoniae strain 168, endogenous (M. hyopneumoniae (endogenous in strain 168)), sequence (Q4A7K0 whole entry): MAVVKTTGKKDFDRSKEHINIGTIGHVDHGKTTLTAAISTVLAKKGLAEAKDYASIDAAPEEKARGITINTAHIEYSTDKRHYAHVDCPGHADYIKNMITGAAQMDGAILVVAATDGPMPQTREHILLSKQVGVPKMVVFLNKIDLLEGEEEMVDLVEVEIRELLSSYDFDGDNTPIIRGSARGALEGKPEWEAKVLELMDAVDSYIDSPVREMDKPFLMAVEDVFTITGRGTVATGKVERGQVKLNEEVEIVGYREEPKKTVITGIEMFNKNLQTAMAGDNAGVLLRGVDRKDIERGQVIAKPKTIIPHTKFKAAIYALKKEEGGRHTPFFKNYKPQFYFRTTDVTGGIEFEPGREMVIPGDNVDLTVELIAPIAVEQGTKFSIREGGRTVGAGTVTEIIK
# human factor H (human), sequence (P08603 19-1231): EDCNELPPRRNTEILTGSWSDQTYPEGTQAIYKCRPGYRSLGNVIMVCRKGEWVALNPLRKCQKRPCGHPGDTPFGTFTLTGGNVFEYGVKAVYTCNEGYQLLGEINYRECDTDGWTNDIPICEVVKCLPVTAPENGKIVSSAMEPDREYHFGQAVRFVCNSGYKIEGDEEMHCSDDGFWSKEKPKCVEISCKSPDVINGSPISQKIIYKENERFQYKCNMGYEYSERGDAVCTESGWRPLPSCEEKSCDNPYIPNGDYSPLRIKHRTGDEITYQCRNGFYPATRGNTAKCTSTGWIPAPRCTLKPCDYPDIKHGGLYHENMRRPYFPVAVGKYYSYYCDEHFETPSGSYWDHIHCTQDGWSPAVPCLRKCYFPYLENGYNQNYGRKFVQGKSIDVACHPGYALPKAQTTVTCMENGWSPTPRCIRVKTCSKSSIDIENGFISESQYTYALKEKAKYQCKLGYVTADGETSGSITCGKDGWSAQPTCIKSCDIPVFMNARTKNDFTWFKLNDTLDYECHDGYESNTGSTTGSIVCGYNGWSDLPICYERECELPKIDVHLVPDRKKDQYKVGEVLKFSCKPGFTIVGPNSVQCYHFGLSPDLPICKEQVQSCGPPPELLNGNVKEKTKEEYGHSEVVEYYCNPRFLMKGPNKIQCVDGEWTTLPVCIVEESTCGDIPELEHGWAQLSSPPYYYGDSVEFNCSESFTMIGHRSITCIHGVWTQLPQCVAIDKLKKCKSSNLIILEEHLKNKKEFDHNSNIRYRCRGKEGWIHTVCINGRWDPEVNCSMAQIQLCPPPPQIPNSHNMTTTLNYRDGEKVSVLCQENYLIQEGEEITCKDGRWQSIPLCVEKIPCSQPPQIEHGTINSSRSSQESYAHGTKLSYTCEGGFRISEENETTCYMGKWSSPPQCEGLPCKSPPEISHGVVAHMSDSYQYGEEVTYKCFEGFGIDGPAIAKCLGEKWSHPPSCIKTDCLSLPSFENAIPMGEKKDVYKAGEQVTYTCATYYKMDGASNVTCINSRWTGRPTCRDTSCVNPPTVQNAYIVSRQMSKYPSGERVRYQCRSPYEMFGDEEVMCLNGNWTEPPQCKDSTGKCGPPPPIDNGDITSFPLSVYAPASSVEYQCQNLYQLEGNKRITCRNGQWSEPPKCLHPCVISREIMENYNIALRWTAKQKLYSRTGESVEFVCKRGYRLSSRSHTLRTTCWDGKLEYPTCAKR
# human factor H, sequence (P08603 19-1231): as above
# recombinant full-length EF-Tu of M. hyopneumoniae, sequence (Q4A7K0 whole entry): as the sequence (Q4A7K0 whole entry) above
# elongation factor Tu (EF-Tu) of M. hyopneumoniae strain 168, endogenous (natural protein), sequence (Q4A7K0 whole entry): as above
substance,measurement,setting,value
recombinant full-length EF-Tu of M. hyopneumoniae (from UniProt Q4A7K0 1-402) (natural protein; other documents disagree on this pair),Kd,human factor H (human) [1],7.83 µM
"elongation factor Tu (EF-Tu) of M. hyopneumoniae strain 168, endogenous (natural protein)",binding of M. hyopneumoniae cells to factor H immobilised on 96-well plates (qPCR count) after preincubation with anti-EF-Tu polyclonal antibodies against preimmune serum,human factor H (human) [2],47.7%
human factor H (from UniProt P08603 19-1231) (natural protein),"C3 fragment deposition on M. hyopneumoniae cells by flow cytometry, anti-EF-Tu antibodies against preimmune sera, with factor H",[3],8 fold

# Source: paper PMC7549910
